{"source": "patent US20220308072A1", "key": {"[1]": {"biological_target": "Recombinant, his tagged full length human frataxin protein (Abcam ab95502) (human) (UniProt Q16595)", "sequence (Q16595 42-210)": "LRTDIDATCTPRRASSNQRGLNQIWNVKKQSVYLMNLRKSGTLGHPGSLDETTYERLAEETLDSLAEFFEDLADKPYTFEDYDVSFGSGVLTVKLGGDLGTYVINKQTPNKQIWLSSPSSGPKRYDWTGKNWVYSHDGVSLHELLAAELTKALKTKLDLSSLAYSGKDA", "assay": "Simoa sandwich 2-step; capture Ab-1; 50 pM SβG; frataxin 6.17 pg/mL"}, "[2]": {"biological_target": "Recombinant, his tagged full length human frataxin protein (Abcam ab95502) (human) (UniProt Q16595)", "assay": "Simoa sandwich 2-step; capture Ab-2"}, "[3]": {"biological_target": "Recombinant, his tagged full length human frataxin protein (Abcam ab95502) (human) (UniProt Q16595)", "assay": "Simoa sandwich 2-step (35 min-5 min); capture Ab-1; with helper beads; frataxin 18.5 pg/mL"}, "[4]": {"biological_target": "Recombinant, his tagged full length human frataxin protein (Abcam ab95502) (human) (UniProt Q16595)", "assay": "Simoa sandwich 2-step; capture Ab-2; frataxin 0.686 pg/mL"}, "[5]": {"biological_target": "Recombinant, his tagged full length human frataxin protein (Abcam ab95502) (human) (UniProt Q16595)", "assay": "Simoa sandwich 3-step; capture Ab-4; frataxin 1000 pg/mL"}, "[6]": {"biological_target": "Recombinant, his tagged full length human frataxin protein (Abcam ab95502) (human) (UniProt Q16595)", "assay": "Simoa sandwich; capture Ab-1; no helper beads; frataxin 6.17 pg/mL"}, "[7]": {"biological_target": "Recombinant, his tagged full length human frataxin protein (Abcam ab95502) (human) (UniProt Q16595)", "assay": "Simoa sandwich 2-step; capture Ab-4; frataxin 1000 pg/mL"}, "[8]": {"biological_target": "Recombinant, his tagged full length human frataxin protein (Abcam ab95502) (human) (UniProt Q16595)", "assay": "Simoa sandwich 2-step (120 min-5 min); capture Ab-1; Diluent 1 + 5% NCS; frataxin 66.7 pg/mL"}, "[9]": {"biological_target": "Recombinant, his tagged full length human frataxin protein (Abcam ab95502) (human) (UniProt Q16595)", "assay": "Simoa sandwich 2-step; capture Ab-1; frataxin 0.686 pg/mL"}, "[10]": {"biological_target": "Recombinant, his tagged full length human frataxin protein (Abcam ab95502) (human) (UniProt Q16595)", "assay": "Simoa sandwich 2-step; capture Ab-2", "remark": "listed apart in the source"}, "[11]": {"biological_target": "Recombinant, his tagged full length human frataxin protein (Abcam ab95502) (human) (UniProt Q16595)", "assay": "Simoa sandwich 2-step; capture Ab-1"}, "[12]": {"biological_target": "Recombinant, his tagged full length human frataxin protein (Abcam ab95502) (human) (UniProt Q16595)", "assay": "Simoa sandwich 2-step (120 min-5 min); capture Ab-1"}, "[13]": {"biological_target": "Recombinant, his tagged full length human frataxin protein (Abcam ab95502) (human) (UniProt Q16595)", "assay": "Simoa sandwich 2-step (120 min-5 min); capture Ab-1; Diluent 1 + 5% NCS; frataxin 22.2 pg/mL"}, "[14]": {"biological_target": "Recombinant, his tagged full length human frataxin protein (Abcam ab95502) (human) (UniProt Q16595)", "assay": "Simoa sandwich 3-step; capture Ab-3; frataxin 100 pg/mL"}, "[15]": {"biological_target": "Recombinant, his tagged full length human frataxin protein (Abcam ab95502) (human) (UniProt Q16595)", "assay": "Simoa sandwich 2-step (120 min-5 min); capture Ab-1; Diluent 1 + 10% NCS; frataxin 111 pg/mL"}, "[16]": {"biological_target": "Recombinant, his tagged full length human frataxin protein (Abcam ab95502) (human) (UniProt Q16595)", "assay": "Simoa sandwich 3-step; capture Ab-5; frataxin 1000 pg/mL"}, "[17]": {"biological_target": "Recombinant, his tagged full length human frataxin protein (Abcam ab95502) (human) (UniProt Q16595)", "assay": "Simoa sandwich 3-step; capture Ab-3; frataxin 1000 pg/mL"}, "[18]": {"biological_target": "Recombinant, his tagged full length human frataxin protein (Abcam ab95502) (human) (UniProt Q16595)", "assay": "Simoa sandwich 2-step (120 min-5 min); capture Ab-1; Diluent 1 + 10% NCS"}, "[19]": {"biological_target": "Recombinant, his tagged full length human frataxin protein (Abcam ab95502) (human) (UniProt Q16595)", "assay": "Simoa sandwich 2-step; capture Ab-1; 150 pM SβG; frataxin 500 pg/mL"}, "[20]": {"biological_target": "Recombinant, his tagged full length human frataxin protein (Abcam ab95502) (human) (UniProt Q16595)", "assay": "Simoa sandwich 2-step; capture Ab-1; 150 pM SβG; frataxin 55.6 pg/mL"}, "[21]": {"biological_target": "Recombinant, his tagged full length human frataxin protein (Abcam ab95502) (human) (UniProt Q16595)", "assay": "Simoa sandwich; capture Ab-1; no helper beads; frataxin 55.6 pg/mL"}, "[22]": {"biological_target": "Recombinant, his tagged full length human frataxin protein (Abcam ab95502) (human) (UniProt Q16595)", "assay": "Simoa sandwich 2-step (35 min-5 min); capture Ab-1; with helper beads; frataxin 0.686 pg/mL"}, "[23]": {"biological_target": "Recombinant, his tagged full length human frataxin protein (Abcam ab95502) (human) (UniProt Q16595)", "assay": "Simoa sandwich; capture Ab-1; no helper beads; frataxin 0.686 pg/mL"}, "[24]": {"biological_target": "Recombinant, his tagged full length human frataxin protein (Abcam ab95502) (human) (UniProt Q16595)", "assay": "Simoa sandwich 2-step (120 min-5 min); capture Ab-1; frataxin 2.74 pg/mL"}, "[25]": {"biological_target": "Recombinant, his tagged full length human frataxin protein (Abcam ab95502) (human) (UniProt Q16595)", "assay": "Simoa sandwich 2-step (120 min-5 min); capture Ab-1; Diluent 1 + 10% NCS; frataxin 2.47 pg/mL"}}}
{"substance": "Ab-3, mouse monoclonal [18A5DB1] to Frataxin (Abcam ab110328) (antibody)", "values": [{"measurement": "Ave AEB", "setting": "[1]", "value": 0.194, "unit": "AEB"}, {"measurement": "S/B", "setting": "[1]", "value": 10.6}, {"measurement": "LOD", "setting": "[2]", "value": 0.27, "unit": "pg/mL"}, {"measurement": "AEB Rep1", "setting": "[3]", "value": 1.14, "unit": "AEB"}, {"measurement": "AEB Rep2", "setting": "[3]", "value": 1.19, "unit": "AEB"}, {"measurement": "Ave AEB", "setting": "[3]", "value": 1.16, "unit": "AEB"}, {"measurement": "S/B", "setting": "[3]", "value": 47.8}, {"measurement": "Ave AEB", "setting": "[4]", "value": 0.165, "unit": "AEB"}, {"measurement": "S/B", "setting": "[4]", "value": 1.73}, {"measurement": "Ave AEB", "setting": "[5]", "value": 17.2, "unit": "AEB"}, {"measurement": "S/B", "setting": "[5]", "value": 359}, {"measurement": "AEB Rep1", "setting": "[6]", "value": 0.118, "unit": "AEB"}, {"measurement": "AEB Rep2", "setting": "[6]", "value": 0.141, "unit": "AEB"}, {"measurement": "Ave AEB", "setting": "[6]", "value": 0.13, "unit": "AEB"}, {"measurement": "S/B", "setting": "[6]", "value": 5.74}, {"measurement": "Ave AEB", "setting": "[7]", "value": 23.7, "unit": "AEB"}, {"measurement": "S/B", "setting": "[7]", "value": 193}, {"measurement": "Ave AEB", "setting": "[8]", "value": 1.27, "unit": "AEB"}, {"measurement": "S/B", "setting": "[8]", "value": 70.5}, {"measurement": "Ave AEB", "setting": "[9]", "value": 0.165, "unit": "AEB"}, {"measurement": "S/B", "setting": "[9]", "value": 1.59}, {"measurement": "LOD", "setting": "[10]", "value": 0.23, "unit": "pg/mL"}, {"measurement": "LOD", "setting": "[11]", "value": 0.28, "unit": "pg/mL"}, {"measurement": "LOD", "setting": "[12]", "value": 0.465, "unit": "pg/mL"}, {"measurement": "Ave AEB", "setting": "[13]", "value": 0.395, "unit": "AEB"}, {"measurement": "S/B", "setting": "[13]", "value": 21.9}, {"measurement": "Ave AEB", "setting": "[14]", "value": 0.0152, "unit": "AEB"}, {"measurement": "S/B", "setting": "[14]", "value": 3.21}, {"measurement": "Ave AEB", "setting": "[15]", "value": 0.515, "unit": "AEB"}, {"measurement": "S/B", "setting": "[15]", "value": 48}, {"measurement": "Ave AEB", "setting": "[16]", "value": 22.9, "unit": "AEB"}, {"measurement": "S/B", "setting": "[16]", "value": 120}, {"measurement": "Ave AEB", "setting": "[17]", "value": 0.0854, "unit": "AEB"}, {"measurement": "S/B", "setting": "[17]", "value": 18.1}, {"measurement": "LOD", "setting": "[18]", "value": 0.323, "unit": "pg/mL"}, {"measurement": "Ave AEB", "setting": "[19]", "value": 23.7, "unit": "AEB"}, {"measurement": "S/B", "setting": "[19]", "value": 527}, {"measurement": "Ave AEB", "setting": "[20]", "value": 3.69, "unit": "AEB"}, {"measurement": "S/B", "setting": "[20]", "value": 82.3}, {"measurement": "AEB Rep1", "setting": "[21]", "value": 1.16, "unit": "AEB"}, {"measurement": "AEB Rep2", "setting": "[21]", "value": 0.608, "unit": "AEB"}, {"measurement": "Ave AEB", "setting": "[21]", "value": 0.885, "unit": "AEB"}, {"measurement": "S/B", "setting": "[21]", "value": 39.1}, {"measurement": "AEB Rep1", "setting": "[22]", "value": 0.0586, "unit": "AEB"}, {"measurement": "AEB Rep2", "setting": "[22]", "value": 0.0638, "unit": "AEB"}, {"measurement": "Ave AEB", "setting": "[22]", "value": 0.0612, "unit": "AEB"}, {"measurement": "S/B", "setting": "[22]", "value": 2.51}, {"measurement": "AEB Rep1", "setting": "[23]", "value": 0.0328, "unit": "AEB"}, {"measurement": "AEB Rep2", "setting": "[23]", "value": 0.028, "unit": "AEB"}, {"measurement": "Ave AEB", "setting": "[23]", "value": 0.0304, "unit": "AEB"}, {"measurement": "S/B", "setting": "[23]", "value": 1.34}, {"measurement": "AEB rep1", "setting": "[24]", "value": 0.0165, "unit": "AEB"}, {"measurement": "AEB rep2", "setting": "[24]", "value": 0.0248, "unit": "AEB"}, {"measurement": "AEB rep3", "setting": "[24]", "value": 0.0202, "unit": "AEB"}, {"measurement": "Ave AEB", "setting": "[24]", "value": 0.0205, "unit": "AEB"}, {"measurement": "S/B", "setting": "[24]", "value": 2.48}, {"measurement": "Ave AEB", "setting": "[25]", "value": 0.0444, "unit": "AEB"}, {"measurement": "S/B", "setting": "[25]", "value": 2.44}]}
